For one test, the target named is T1, mouse LIFR-ECD protein (mouse, UniProt P42703 44-828).
T1 construct: extracellular domain
T1 sequence (looked up): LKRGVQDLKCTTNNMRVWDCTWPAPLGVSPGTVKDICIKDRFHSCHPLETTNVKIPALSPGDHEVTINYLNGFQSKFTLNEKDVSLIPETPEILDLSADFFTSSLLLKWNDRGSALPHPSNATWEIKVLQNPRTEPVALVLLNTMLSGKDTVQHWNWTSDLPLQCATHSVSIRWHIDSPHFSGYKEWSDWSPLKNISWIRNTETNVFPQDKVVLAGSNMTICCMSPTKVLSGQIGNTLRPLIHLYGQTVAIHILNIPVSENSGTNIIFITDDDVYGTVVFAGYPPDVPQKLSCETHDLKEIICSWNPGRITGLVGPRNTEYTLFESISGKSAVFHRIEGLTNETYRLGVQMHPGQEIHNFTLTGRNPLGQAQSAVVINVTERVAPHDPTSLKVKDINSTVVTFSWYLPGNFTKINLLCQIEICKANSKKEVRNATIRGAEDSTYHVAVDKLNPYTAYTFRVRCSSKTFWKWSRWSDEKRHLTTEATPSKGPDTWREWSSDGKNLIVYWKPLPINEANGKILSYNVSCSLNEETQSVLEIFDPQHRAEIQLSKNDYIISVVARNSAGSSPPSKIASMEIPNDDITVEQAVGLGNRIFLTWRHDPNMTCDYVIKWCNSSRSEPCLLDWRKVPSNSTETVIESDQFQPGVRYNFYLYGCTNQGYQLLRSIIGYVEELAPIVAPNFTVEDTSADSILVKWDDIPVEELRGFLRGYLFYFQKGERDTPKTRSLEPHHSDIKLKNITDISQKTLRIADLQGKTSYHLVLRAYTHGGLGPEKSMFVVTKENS
The test can be described thus: ELISA on plate-coated mouse LIFR-ECD (1 ug/mL), anti-human IgG Fc-HRP, OD450nm. As for the experimental part: The binding ability of the 15 antibodies prepared in examples 1-4 of the present invention to the LIFR-ECD protein was detected based on the ELISA assay method. The binding affinity of different antibodies was determined by comparing their dose response binding curves to LIFR-ECD protein. The specific experimental process is as follows: First, human LIFR-ECD, monkey LIFR-ECD and mouse LIFR-ECD proteins are diluted to a concentration of 1 μg/mL, added to a 96-well plate (100 μL per well) and placed at 4° C. overnight. The 96-well plates were washed three times with PBST solution and then placed at 37° C. for 1 h with the addition of 2% BSA in PBS solution. Antibody seris dilution is prepared and (100 nM, 10-fold-dilution), added to a 96-well plate and incubate at 37° C. for 1 h. After washing three times with PBST solution, add anti-human IgG Fc-HRP secondary antibody (for 5000× dilution) and incubate at 37° C. for 30-60 min. After washing three times with PBST solution, add TMB color development solution for 5-15 minutes, and then add termination solution to ternimate the color development.
Background: In an ELISA, binding on a coated surface is turned into a signal by an enzyme label.

The target in test [1] is T2, human LIFR/gp130 heterodimer expressed on the surface of 293T cells (human, UniProt P42702 45-1097; P40189 23-918).
T2 construct: whole, on cells; also called HEK293T-huLIFR/gp130; huLIFR/gp130
T2 sequence (P40189 23-918, one chain of several): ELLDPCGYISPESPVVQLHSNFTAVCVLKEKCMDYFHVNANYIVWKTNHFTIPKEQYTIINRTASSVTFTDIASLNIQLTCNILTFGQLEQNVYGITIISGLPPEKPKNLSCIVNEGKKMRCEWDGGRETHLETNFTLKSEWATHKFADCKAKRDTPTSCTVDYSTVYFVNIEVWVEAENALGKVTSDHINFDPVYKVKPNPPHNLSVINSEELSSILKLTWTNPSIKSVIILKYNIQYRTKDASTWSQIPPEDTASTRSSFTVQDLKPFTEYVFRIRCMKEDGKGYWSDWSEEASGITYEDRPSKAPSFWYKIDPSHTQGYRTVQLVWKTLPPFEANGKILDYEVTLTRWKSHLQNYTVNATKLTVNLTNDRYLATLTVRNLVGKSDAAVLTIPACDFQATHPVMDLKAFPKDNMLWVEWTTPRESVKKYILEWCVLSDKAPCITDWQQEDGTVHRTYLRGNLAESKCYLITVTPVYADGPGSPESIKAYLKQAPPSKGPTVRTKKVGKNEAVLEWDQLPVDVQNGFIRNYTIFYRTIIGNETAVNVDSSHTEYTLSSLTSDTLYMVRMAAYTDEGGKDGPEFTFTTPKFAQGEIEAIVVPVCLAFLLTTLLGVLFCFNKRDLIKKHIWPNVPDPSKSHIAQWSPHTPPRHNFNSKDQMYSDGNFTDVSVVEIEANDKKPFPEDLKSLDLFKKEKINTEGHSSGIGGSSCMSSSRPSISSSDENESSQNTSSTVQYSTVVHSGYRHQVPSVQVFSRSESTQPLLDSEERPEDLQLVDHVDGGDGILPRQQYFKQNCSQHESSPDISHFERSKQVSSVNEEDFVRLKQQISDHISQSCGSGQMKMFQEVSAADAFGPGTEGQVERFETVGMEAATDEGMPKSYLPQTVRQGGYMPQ
Nature of the test: flow cytometry on HEK293T-huLIFR/gp130 cells, median fluorescence, span of the fitted curve. For orientation: Flow cytometry measures light scatter and fluorescence of single cells or particles in a stream.

In test [2] the target is T3, human LIFR expressed on the surface of 293T cells (human, UniProt P42702 45-1097).
T3 construct: whole, on cells; also called HEK293T-huLIFR; huLIFR
T3 sequence (looked up): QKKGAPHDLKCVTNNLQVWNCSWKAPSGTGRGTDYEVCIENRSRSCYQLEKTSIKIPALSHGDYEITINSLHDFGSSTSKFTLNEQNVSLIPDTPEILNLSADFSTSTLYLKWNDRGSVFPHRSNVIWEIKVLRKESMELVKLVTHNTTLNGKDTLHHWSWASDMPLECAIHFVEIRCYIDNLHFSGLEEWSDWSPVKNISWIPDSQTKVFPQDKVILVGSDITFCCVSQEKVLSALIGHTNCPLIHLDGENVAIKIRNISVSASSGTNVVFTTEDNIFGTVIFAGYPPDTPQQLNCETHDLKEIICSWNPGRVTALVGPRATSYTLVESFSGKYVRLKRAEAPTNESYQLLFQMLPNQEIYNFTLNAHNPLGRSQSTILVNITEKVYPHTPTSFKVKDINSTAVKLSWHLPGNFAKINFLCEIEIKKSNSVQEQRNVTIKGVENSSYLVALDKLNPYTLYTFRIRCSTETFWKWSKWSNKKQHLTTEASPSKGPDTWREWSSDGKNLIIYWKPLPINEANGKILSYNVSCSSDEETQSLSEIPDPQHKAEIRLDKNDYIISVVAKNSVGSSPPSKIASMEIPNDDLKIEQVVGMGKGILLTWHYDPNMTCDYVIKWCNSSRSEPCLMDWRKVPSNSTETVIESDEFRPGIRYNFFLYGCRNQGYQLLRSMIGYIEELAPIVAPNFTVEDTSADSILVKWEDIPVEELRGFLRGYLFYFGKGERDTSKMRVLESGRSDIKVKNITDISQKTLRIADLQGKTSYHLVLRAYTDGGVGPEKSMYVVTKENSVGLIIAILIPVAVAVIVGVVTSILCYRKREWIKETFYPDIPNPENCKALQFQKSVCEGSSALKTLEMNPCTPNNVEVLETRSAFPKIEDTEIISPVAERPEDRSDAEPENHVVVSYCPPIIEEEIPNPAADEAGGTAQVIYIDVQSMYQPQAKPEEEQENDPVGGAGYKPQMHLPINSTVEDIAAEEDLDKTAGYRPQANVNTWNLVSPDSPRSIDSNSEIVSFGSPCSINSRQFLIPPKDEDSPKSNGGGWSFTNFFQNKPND
The test can be described thus: flow cytometry on HEK293T-huLIFR cells, median fluorescence, span of the fitted curve.

B1: PR301176 (antibody, IgG1, V domains shown)
VH: QVQLVESGGGVVQPGRSLRLSCAASGFTFSSYGMDWVRQAPGKGLEWVAVIWYDGSNKFYADSVRGRFTISRDNSQNTLYLQMNSLRAEDTAVYYCARELWFGELLSPFDFWGQGTLVTVSS
VL: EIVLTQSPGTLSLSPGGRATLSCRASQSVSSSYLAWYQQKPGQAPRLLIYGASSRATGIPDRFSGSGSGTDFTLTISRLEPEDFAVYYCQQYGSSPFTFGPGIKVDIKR
Regarding B1, in the test with mouse LIFR-ECD protein, the binding result is given as “no binding (tested: 100 nM)”.

B2: PR301168 (antibody, IgG1, V domains shown)
VH: QVQLVESGGGVVQPGRSLRLSCAASGFTFSSYGMDWVRQAPGKGLEWVAVIWYDGSNKFYADSVRGRFTISRDNSQNTLYLQMNSLRAEDTAVYYCARELWFGELLSPLDFWGQGTLVTVSS
VL: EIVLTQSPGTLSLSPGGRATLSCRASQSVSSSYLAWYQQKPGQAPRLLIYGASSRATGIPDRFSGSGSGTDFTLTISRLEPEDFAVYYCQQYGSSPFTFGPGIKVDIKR
notes: also called PR3001168
On to B2, for which the binding result with mouse LIFR-ECD protein is given as “no binding (tested: 100 nM)”. Moreover, the Span in test [1] is 6950; in test [2] it was 19400.

B3: PR301152 (antibody, IgG1, V domains shown)
VH: QVQLVESGGGVVQPGRSLRLSCAASGFTFSSYGMDWVRQAPGKGLEWVAVIWYDGSNKYYADSVKGRFTISRDNSKNTLYLQMNSLRAEDTAVYYCARELWFGELLSPFDFWGQGTLVTVSS
VL: KIVLTQSPGTLSLSPGGRATLSCRASQSISSSYLAWYQQKPGQAPRLLIYAASNRATGIPDRFSGSGSGTDFTLTISRLEPEDFAVYYCQQYGSSPFTFGPGIKVDIKR
In the case of B3, the binding result with mouse LIFR-ECD protein is recorded as “no binding (tested: 100 nM)”. Also, the Span came out at 7210 in test [1] and 20100 in test [2].

B4: PR300516 (antibody, human IgG1, kappa, V domains shown)
VH: QVQLVESGGGVVQPGRSLRLSCAASGFTFSSYGMHWVRQAPGKGLEWVAVIWYDGNNKYYADSVKGRFTISRDNSKNTLYLQMNSLRAEDTAVYYCARDGESSMVRGLLNWFDPWGQGTLVTVSS
VL: not shown
For the molecule B4, in the test with mouse LIFR-ECD protein, the binding result was “no binding (tested: 100 nM)”. The Span in test [1] turned out to be 6880; in test [2], 19800.

B5: PR301153 (antibody, IgG1, V domains shown)
VH: QGQLVESGGGVVQPGRSLRLSCAASGFTFSSYGMHWVRQPPGKGLEWVAVIWFDGSNKYYADSVKGRFTISRDNSKNTVYLQMDSLRDEDTAVYYCARGQLVGDYWGQGTLVTVSS
VL: not shown
Take B5: the binding result with mouse LIFR-ECD protein was “no binding (tested: 100 nM)”.

B6: PR301215 (antibody, human IgG1, kappa, V domains shown)
VH: QVQLVESGGGVVQPGRSLRLSCAASGFTFSSYGMHWVRQAPGKGLEWVAVIWFDGSIKYYADSVKGRFTISRDNSKNTLYLQMNSLRAEDTAIYYCARGQLVQDFWGRGTLVTVSS
VL: DIQMTQSPSTLSASVGDRVTITCRASQSISSWLAWYQQKPGKAPNLLMYKASNLESGVPSRFSGSGSGTEFTLTITSLQPDDFASYYCQQYKSNPLTFGGGTKVEIKR
For B6, in the test with mouse LIFR-ECD protein, the binding result is given as “no binding (tested: 100 nM)”.

B7: PR301196 (antibody, human IgG1, kappa, V domains shown)
VH: QVQLVESGGGVVQPGRSLRLSCAASGFTFSSYGMNWVRQAPGKGLEWVAVIWFDGSIKYYADSVKGRFTISRDNSKNTLYLQMNSLRAEDTAIYYCARGQLVQDFWGRGTLVTVSS
VL: DIQMTQSPSTLSASVGDRVTITCRASQSISSWLAWYQQKPGKAPNLLMYKASNLENGVSSRFSGSGSGTEFTLTITSLQPDDFATYYCQQYKSNPLTFGGGTKVEIKR
For the molecule B7, the binding result with mouse LIFR-ECD protein is “no binding (tested: 100 nM)”.

B8: PR301218 (antibody, human IgG1, kappa, V domains shown)
VH: QVQLVESGGGVVQPGRSLRLSCAASGFTFSSYGMHWVRQAPGKGLEWVAVIWFDGSVKYYADSVKGRFTISRDNSKNTLYLQMNSLRAEDTAIYYCARGQLVQDFWGRGTLVTVSS
VL: DIQMTQSPSTLSASVGDRVTITCRASQSISSWLAWYQQKPGKAPNLLMYKASNLESGVPSRFSGSGSGTEFTLTITSLQPDDFASYYCQQYKSNPLTFGGGTKVEIKR
Regarding B8, the binding result in the test with mouse LIFR-ECD protein is “no binding (tested: 100 nM)”.

B9: PR301211 (antibody, human IgG1, kappa, V domains shown)
VH: QVQLVESGGGVVQPGRSLRLSCAASGFTFSSYGMHWVRQAPGKGLEWVAVIWFDGSLKYYADSVKGRFAISRDNSKNTLYLQMNSLRAEDTAIFYCARGQLVQDLWGRGTLVTVSS
VL: DIQMTQSPSTLSASVGDRVTITCRASQSISSWLAWYQQKPGKAPNLLMYKASNLESGVPSRFSGSGSGTEFTLTITSLQPDDFASYYCQQYKSNPLTFGGGTKVEIKR
For the molecule B9, the Span was 5800 in test [1] and 15900 in test [2].

B10: PR301195 (antibody, human IgG1, kappa, V domains shown)
VH: QVQLVESGGGVVQPGRSLRLSCAASGFTFSSYGMNWVRQAPGKGLEWVAVIWFDGSIKYYADSVKGRFTISRDNSKNTLYLQMNSLRAEDTAIYYCARGQLVQDFWGRGTLVTVSS
VL: DIQMTQSPSTLSASVGDRVTITCRASQSISSWLAWYQQKPGKAPNLLMYKASNLESGVPSRFSGSGSGTEFTLTITSLQPDDFASYYCQQYKSNPLTFGGGTKVEIKR
Take B10: in the test with mouse LIFR-ECD protein, the binding result is on record as “no binding (tested: 100 nM)”.

B11: PR301177 (antibody, human IgG1, kappa, V domains shown)
VH: QVQLVESGGGVVQPGRSLRLSCVASGFTFSSYGMNWVRQAPGKGLDWVTVIWFDGSNKYYADSVKGRFTISRDNSKNTLYLQMNSLRAEDTAMYYCARGERTLDLWGQGTLVTVSS
VL: DIQMTQSPSTLSASVGDRVTITCRASQSISSWLAWYQQKPGKAPKLLIYKASSLESGVPSRFSGSGSGTEFSFTISSLQPDDFATYYCQQYKSFSPGGLTFGGGTKVEIKR
B11: in the test with mouse LIFR-ECD protein, the binding result is listed as “no binding (tested: 100 nM)”.

B12: PR301127 (antibody, human IgG1, kappa, V domains shown)
VH: EVQLLQSGGGLVQPGGSLRLSCAASGFTFSNYAMTWVRQAPGKGLEWVSTISGSGAFTYYADAVKGRFTISRVNSKNSLDLQMNSLRAEDTAVYYCAKGGILTGFDNWGQGTLVTVSS
VL: DIQMTQSPSTLSASVGDRVTITCRASQSISSWLAWYQQKPGKAPKLLIYKASSLESGVPSRFSGSGSGTEFSFTISSLQPDDFATYYCQQYKSFSPGGLTFGGGTKVEIKR
In test [1], B12 registered a Span of 55.6.

The values are drawn from patent US20250136702A1 (NONA BIOSCIENCES SUZHOU, published 2025).
